Laboratory results as given in US20160237164A1 (VIVENTIA BIO, published 2016).
Residue numbers refer to the chain shown, from its start. Read-outs that look alike come from different tables or passages of the source.

Key:
[1] = target: Epithelial Cell Adhesion Molecule (EpCAM) (human) (UniProt P16422)
[2] = target: Epithelial Cell Adhesion Molecule (EpCAM) (human) (UniProt P16422); remark: listed apart in the source
[3] = target: Epithelial Cell Adhesion Molecule (EpCAM) (human) (UniProt P16422); remark: listed apart in the source
[4] = target: T1, Epithelial Cell Adhesion Molecule (EpCAM) (human, UniProt P16422 24-314)
T1 sequence (looked up): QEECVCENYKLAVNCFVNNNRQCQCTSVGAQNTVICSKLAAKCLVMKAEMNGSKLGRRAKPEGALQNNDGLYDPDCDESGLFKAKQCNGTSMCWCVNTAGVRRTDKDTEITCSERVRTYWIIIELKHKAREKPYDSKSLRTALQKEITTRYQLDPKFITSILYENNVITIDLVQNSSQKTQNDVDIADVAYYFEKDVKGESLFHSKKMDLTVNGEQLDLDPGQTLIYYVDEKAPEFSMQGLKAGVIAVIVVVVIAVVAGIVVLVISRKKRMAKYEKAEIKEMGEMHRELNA

[5] = target: T1, Epithelial Cell Adhesion Molecule …; assay: flow cytometry on OVCAR-3 cells (EpCAM-positive), purified protein at 100 ng/mL
[6] = target: T1, Epithelial Cell Adhesion Molecule …; assay: flow cytometry on MCF-7 cells (EpCAM-positive), purified protein at 100 ng/mL
[7] = target: T1, Epithelial Cell Adhesion Molecule …; assay: flow cytometry on CAL-27 cells (EpCAM-positive), purified protein at 100 ng/mL
[8] = target: T1, Epithelial Cell Adhesion Molecule …; remark: listed apart in the source
[9] = target: T1, Epithelial Cell Adhesion Molecule …; assay: flow cytometry on HT-29 cells (EpCAM-positive), purified protein at 100 ng/mL
[10] = target: T1, Epithelial Cell Adhesion Molecule …; assay: cell-based or functional assay
[11] = target: T1, Epithelial Cell Adhesion Molecule …; remark: listed apart in the source
[12] = target: T1, Epithelial Cell Adhesion Molecule …; remark: listed apart in the source
[13] = target: T1, Epithelial Cell Adhesion Molecule …; assay: flow cytometry titration (3.2 to 1000 ng/mL) on CAL-27 cells, Lineweaver-Burk plot
[14] = target: T2, Epithelial Cell Adhesion Molecule (EpCAM) (human, UniProt P16422 24-314); assay: flow cytometry (Lineweaver-Burk), Cal-27 cells
T2 chain: T1 sequence (looked up)

## VB6-845 VH-S93 / VL-WT (Fab)
[1]
  MF (median fluorescence, % of WT): 35 % of WT

## VB6-845 VH-WT / VL-CDR2 (E51-H53-Q55) (Fab)
[2]
  MF (median fluorescence, % of WT): 70 % of WT

## VB6-845 VH-WT / VL-FR2 (H39-S42), second version (Fab)
[2]
  MF (median fluorescence, % of WT): 68 % of WT

## VB6-845 VH-N53 / VL-WT (Fab)
[1]
  MF (median fluorescence, % of WT): 23 % of WT

## VB6-845 VH-WT / VL-FR2 (D41-Q42), first version (Fab)
[3]
  MF (median fluorescence, % of WT): 84 % of WT

B1: VB6-845-(VH-IIr-CDR1/VL-Ir-Q50) (Fab)
chain 1: EVQLVQSGPGLVQPGGSVRISCAASGYTFTNYGMNWVKQAPGKGLEWMGWINTYTGESTYADSFKGRFTFSLDTSASAAYLQINSLRAEDTAVYYCARFAIKGDYWGQGTLLTVSSASTKGPSVFPLAPSSKSTSGGTAALGCLVKDYFPEPVTVSWNSGALTSGVHTFPAVLQSSGLYSLSSVVTVPSSSLGTQTYICNVNHKPSNTKVDKKVEPKSCTRHRQPRGWEQLYNTVSFNLGEAYEYPTFIQDLRNELAKGTPVCQLPVTLQTIADDKRFVLVDITTTSKKTVKVAIDVTDVYVVGYQDKWDGKDRAVFLDKVPTVATSKLFPGVTNRVTLTFDGSYQKLVNAAKADRKALELGVNKLEFSIEAIHGKTINGQEAAKFFLIVIQMVSEAARFKYIETEVVDRGLYGSFKPNFKVLNLENNWGDISDAIHKSSPQCTTINPALQLISPSNDPWVVNKVSQISPDMGILKFKSSK
chain 2: HHHHHHDIQMTQSPSSLSASVGDRVTITCRSTKSLLHSNGITYLYWYQQKPGKAPKLLIYQMSNLASGVPSRFSSSGSGTDFTLTISSLQPEDFATYYCAQNLEIPRTFGQGTKVELKRTVAAPSVFIFPPSDEQLKSGTASVVCLLNNFYPREAKVQWKVDNALQSGNSQESVTEQDSKDSTYSLSSTLTLSKADYEKHKVYACEVTHQGLSSPVTKSFNRGEC
[4]
  MF (median fluorescence, % of WT): 78 % of WT

B2: VB6-845-Algo (VH-IIr-N35-Q98 / VL-IIr-KSHI) (Fab)
heavy: EVQLQQSGPGLVQPGGSVRISCAASGYTFTAYGMNWVRQAPGKGLEWMGWINTYTGESTYADSFKGRFEFSLDTHNSSAYLQIQSLREEDTAVYYCARFAIQGDYWGQGTLVTVSSASTKGPSVFPLAPSSKSTSGGTAALGCLVKDYFPEPVTVSWNSGALTSGVHTFPAVLQSSGLYSLSSVVTVPSSSLGTQTYICNVNHKPSNTKVDKKVEPKSC
light: DIQMTQSPSSLSASVGDRVTITCKSTKSLLHSNGITYLYWYQQKPGSAPKLLIYQMSHLASGVPSRFSSSGSGTDFTLTISSLQPEDFATYYCAQNLEIPRTFGQGTKVEIKRTVAAPSVFIFPPSDEQLKSGTASVVCLLNNFYPREAKVQWKVDNALQSGNSQESVTEQDSKDSTYSLSSTLTLSKADYEKHKVYACEVTHQGLSSPVTKSFNRGECTRHRQPRGWEQKYNTVSFNLGEAYEYPTFIQDLRNELAKGTPVCQLPVTLQTIADDKRFVLVDITTTSKKTVKVAIDVTDVYVVGYQDKWDGKDRAVFLDKVPTVATSKLFPGVTNRVTLTFDGSYQKLVNAAKADRKALELGVNKLEFSIEAIHGKTINGQEAAKFFLIVIQMVSEAARFKYIETEVVDRGLYGSFKPNFKVLNLENNWGDISDAIHKSSPQCTTINPALQLISPSNDPWVVNKVSQISPDMGILKFKSSK
[5]
  FI (fold increase) at 100 ng/mL: 40.9 fold
[6]
  FI (fold increase) at 100 ng/mL: 27.7 fold
[7]
  FI (fold increase) at 100 ng/mL: 14 fold
[8]
  MF (median fluorescence, % of WT): 94 % of WT
[9]
  FI (fold increase) at 100 ng/mL: 41.6 fold
[10]
  IC50 (nM), MTS cytotoxicity assay, CAL-27 (EpCAM-positive): 18 nM
  IC50 (nM), MTS cytotoxicity assay, HT-29 (EpCAM-positive): 15 nM
  IC50 (nM), MTS cytotoxicity assay, MCF-7 (EpCAM-positive): 2.3 nM
  IC50 (nM), MTS cytotoxicity assay, OVCAR-3 (EpCAM-positive): 2.9 nM

B3: VB6-845 VH-WT / VL-IIr-KSHI (Fab)
heavy: EVQLVQSGPGLVQPGGSVRISCAASGYTFTNYGMNWVKQAPGKGLEWMGWINTYTGESTYADSFKGRFTFSLDTSASAAYLQINSLRAEDTAVYYCARFAIKGDYWGQGTLLTVSSASTKGPSVFPLAPSSKSTSGGTAALGCLVKDYFPEPVTVSWNSGALTSGVHTFPAVLQSSGLYSLSSVVTVPSSSLGTQTYICNVNHKPSNTKVDKKVEPKSC
light: B2 light
[11]
  MF (median fluorescence, % of WT): 89 % of WT

B4: VB6-845 VH-IIr-N35-Q98 / VL-WT (Fab)
heavy: B2 heavy
light: B2 light with K24R, S47K, H58N, I111L
[12]
  MF (median fluorescence, % of WT): 100 % of WT

B5: VB5-845-WT (non-deimmunized VB5-845 Fab fragment) (Fab, V domains shown)
VH: EVQLVQSGPGLVQPGGSVRISCAASGYTFTNYGMNWVKQAPGKGLEWMGWINTYTGESTYADSFKGRFTFSLDTSASAAYLQINSLRAEDTAVYYCARFAIKGDYWGQGTLLTVSS
VL: DIQMTQSPSSLSASVGDRVTITCRSTKSLLHSNGITYLYWYQQKPGKAPKLLIYQMSNLASGVPSRFSSSGSGTDFTLTISSLQPEDFATYYCAQNLEIPRTFGQGTKVELKR
[13]
  Kd: 1.56 nM
[14]
  Kd: 1.46 nM

B6: VB5-845-Algo Fab (Fab, V domains shown)
VH: EVQLQQSGPGLVQPGGSVRISCAASGYTFTAYGMNWVRQAPGKGLEWMGWINTYTGESTYADSFKGRFEFSLDTHNSSAYLQIQSLREEDTAVYYCARFAIQGDYWGQGTLVTVSS
VL: B5 VL with R24K, K47S, N58H, L111I
[13]
  Kd: 1.31 nM
